The source of these data is publication PMC10510648.

In data set [1] the test system is RirA wild type (Rhizobium leguminosarum strain 8401). In words: SPR. Particulars: SPR: 10 mM Hepes, 150 mM NaCl, 0.05% Tween, pH 7.4, 20 °C, 0-125 nM dimer; EMSA: 10 mM Hepes, 50 mM NaCl, 2.5% sucrose, 2.5 mM MgCl2, 1 mM DTT, pH 7.9, on ice ….
In data set [2] the test system is RirA N8D (Rhizobium leguminosarum strain 8401?). The experiment in a line: SPR. The following applies: SPR: 10 mM Hepes, 150 mM NaCl, 0.05% Tween, pH 7.4, 20 °C, 0-125 nM dimer; EMSA: 10 mM Hepes, 50 mM NaCl, 2.5% sucrose, 2.5 mM MgCl2, 1 mM DTT, pH 7.9, on ice ….

Take fhuA IRO box 30 bp SPR oligo: the results for the Kd in data set [1] and in data set [2] were 0.0128 µM and 0.0103 µM, respectively.
